Test results as given in patent KR20190132616A (dated 2019).

Key:
[1] = target: T1, 재조합 hAng-2 (C-His, R&D Systems) (human, UniProt O15123 19-496); assay: SPR, BIAcore T100; hAng-2 (C-His) captured by anti-His antibody on CM5 chip, antibody flowed from 100 nM in 2-fold dilutions
T1 construct: Bought protein; also called 인간 Ang-2 단백질
T1 sequence: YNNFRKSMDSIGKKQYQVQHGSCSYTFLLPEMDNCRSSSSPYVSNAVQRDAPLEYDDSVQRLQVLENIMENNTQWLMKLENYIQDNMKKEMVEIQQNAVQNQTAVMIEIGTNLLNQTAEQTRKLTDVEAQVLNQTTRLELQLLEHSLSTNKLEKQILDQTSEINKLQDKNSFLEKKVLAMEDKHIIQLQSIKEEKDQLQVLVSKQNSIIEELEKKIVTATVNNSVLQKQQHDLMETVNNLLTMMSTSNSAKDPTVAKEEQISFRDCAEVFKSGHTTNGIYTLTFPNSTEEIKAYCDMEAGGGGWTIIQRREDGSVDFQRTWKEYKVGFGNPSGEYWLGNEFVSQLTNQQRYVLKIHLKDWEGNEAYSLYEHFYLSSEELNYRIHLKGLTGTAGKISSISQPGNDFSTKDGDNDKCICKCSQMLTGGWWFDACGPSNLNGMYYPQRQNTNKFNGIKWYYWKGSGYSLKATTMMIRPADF

[2] = target: Mutant Ang2 K468 (alanine), FLAG-tagged (human) (UniProt O15123); assay: ELISA, antibody coated (1000nM), FLAG-Ang2 mutant 250ng, anti-FLAG-HRP, OD450 against native Ang2
[3] = target: Mutant Ang2 N421 (alanine), FLAG-tagged (human) (UniProt O15123); assay: as above
[4] = target: Mutant Ang2 N467 (alanine), FLAG-tagged (human) (UniProt O15123); assay: as above
[5] = target: Mutant Ang2 P452 (alanine), FLAG-tagged (human) (UniProt O15123); assay: as above
[6] = target: Mutant Ang2 Q418 (alanine), FLAG-tagged (human) (UniProt O15123); assay: as above
[7] = target: Mutant Ang2 D448 (alanine), FLAG-tagged (human) (UniProt O15123); assay: as above
[8] = target: Mutant Ang2 S417 (alanine), FLAG-tagged (human) (UniProt O15123); assay: as above
[9] = target: Mutant Ang2 I434 (alanine), FLAG-tagged (human) (UniProt O15123); assay: as above
[10] = target: Mutant Ang2 F469 (alanine), FLAG-tagged (human) (UniProt O15123); assay: as above
[11] = target: Mutant Ang2 Y460 (alanine), FLAG-tagged (human) (UniProt O15123); assay: as above
[12] = target: Mutant Ang2 P419 (alanine), FLAG-tagged (human) (UniProt O15123); assay: as above
[13] = target: Mutant Ang2 A449 (alanine), FLAG-tagged (human) (UniProt O15123); assay: as above
hTie2-Fc (R&D Systems) = target: T2, hTie2-Fc (R&D Systems) (human, UniProt Q02763 23-745); assay: complex ELISA: Tie2-Fc coated, Ang2 0.25 ug/ml and 10D6 2 ug/ml added, anti-mouse IgG-HRP
T2 construct: Bought fusion protein, coated on the plate; also called hTie-2/Fc 융합 단백질; not shown: Fc of human IgG1
T2 sequence (Q02763 23-745 limits assumed): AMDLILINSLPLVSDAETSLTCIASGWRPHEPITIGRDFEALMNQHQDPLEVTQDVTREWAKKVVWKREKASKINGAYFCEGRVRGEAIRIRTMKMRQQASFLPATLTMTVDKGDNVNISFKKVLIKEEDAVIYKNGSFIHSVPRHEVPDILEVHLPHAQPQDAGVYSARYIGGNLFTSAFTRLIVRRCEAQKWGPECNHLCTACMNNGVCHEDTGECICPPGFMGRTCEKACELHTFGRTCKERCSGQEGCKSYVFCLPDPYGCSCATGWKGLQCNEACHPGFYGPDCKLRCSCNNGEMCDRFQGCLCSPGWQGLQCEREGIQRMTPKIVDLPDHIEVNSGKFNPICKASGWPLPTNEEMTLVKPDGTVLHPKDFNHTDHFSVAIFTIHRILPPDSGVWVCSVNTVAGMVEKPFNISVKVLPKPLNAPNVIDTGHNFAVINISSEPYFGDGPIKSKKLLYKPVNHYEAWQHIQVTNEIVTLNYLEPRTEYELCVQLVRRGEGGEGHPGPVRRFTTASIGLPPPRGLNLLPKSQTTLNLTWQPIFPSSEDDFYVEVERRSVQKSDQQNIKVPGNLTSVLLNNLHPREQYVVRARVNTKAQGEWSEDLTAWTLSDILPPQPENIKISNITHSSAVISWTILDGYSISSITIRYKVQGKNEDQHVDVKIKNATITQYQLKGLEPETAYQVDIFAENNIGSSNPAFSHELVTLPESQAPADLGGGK

Binder | Kd [1] | native Ang2와의 결합력에 대한 Mutant Ang2 와의 결합력(%) [2] | native Ang2와의 결합력에 대한 Mutant Ang2 와의 결합력(%) [3] | native Ang2와의 결합력에 대한 Mutant Ang2 와의 결합력(%) [4] | native Ang2와의 결합력에 대한 Mutant Ang2 와의 결합력(%) [5] | native Ang2와의 결합력에 대한 Mutant Ang2 와의 결합력(%) [6] | native Ang2와의 결합력에 대한 Mutant Ang2 와의 결합력(%) [7] | native Ang2와의 결합력에 대한 Mutant Ang2 와의 결합력(%) [8] | native Ang2와의 결합력에 대한 Mutant Ang2 와의 결합력(%) [9] | native Ang2와의 결합력에 대한 Mutant Ang2 와의 결합력(%) [10] | native Ang2와의 결합력에 대한 Mutant Ang2 와의 결합력(%) [11] | native Ang2와의 결합력에 대한 Mutant Ang2 와의 결합력(%) [12] | native Ang2와의 결합력에 대한 Mutant Ang2 와의 결합력(%) [13] | binding result (hTie2-Fc (R&D Systems))
SAIT-ANG2-AB-m10D6 (antibody, V domains shown, also called 10D6 항체; 10D6 anti-Ang2 항체) VH: DVQLQESGPGLVKPSQSLSLTCTVTGYSITSDYAWNWIRQFPGNKLEWMGYINYSGNTDYNPSLKSRSSITRDTSKNQFFLQLNSVTTGDTATYYCARGNFEGAMDYWGQGTSVTVSS VL: SIVMTQTPKFLLVSAGDRVTITCKASQSVSNDVAWYQQKPGQSPKLLIYYASNRYPGVPDRFTGSGYGTDFTFTISTVQAEDLAVYFCQQDYSSPWTFGGGTKLEIK | 8 nM | 110% | 109% | 107% | 102% | 38.9% | 105% | 101% | 109% | 109% | 103% | 41.1% | 97.9% | –
Ang2 단백질(R&D systems) (ligand, also called 인간 Ang2 단백질 (R&D systems; 623-AN-025/CF)) YNNFRKSMDSIGKKQYQVQHGSCSYTFLLPEMDNCRSSSSPYVSNAVQRDAPLEYDDSVQRLQVLENIMENNTQWLMKLENYIQDNMKKEMVEIQQNAVQNQTAVMIEIGTNLLNQTAEQTRKLTDVEAQVLNQTTRLELQLLEHSLSTNKLEKQILDQTSEINKLQDKNSFLEKKVLAMEDKHIIQLQSIKEEKDQLQVLVSKQNSIIEELEKKIVTATVNNSVLQKQQHDLMETVNNLLTMMSTSNSAKDPTVAKEEQISFRDCAEVFKSGHTTNGIYTLTFPNSTEEIKAYCDMEAGGGGWTIIQRREDGSVDFQRTWKEYKVGFGNPSGEYWLGNEFVSQLTNQQRYVLKIHLKDWEGNEAYSLYEHFYLSSEELNYRIHLKGLTGTAGKISSISQPGNDFSTKDGDNDKCICKCSQMLTGGWWFDACGPSNLNGMYYPQRQNTNKFNGIKWYYWKGSGYSLKATTMMIRPADF | – | – | – | – | – | – | – | – | – | – | – | – | – | binds
